Measured values reported in US20160263148A1 (University of Washington, published 2016).
Each block holds one binder with its values, some of them ahead of it. Positions of bridges follow the written chain, without caps; N, C: chain ends. Non-standard residues stand in square brackets, D forms with d. p(HEMA-co-NHSMA) = copolymer of 2-hydroxyethyl methacrylate and N-hydroxysuccinimidyl ester methacrylate; Hyp = O=C(O)[C@@H]1C[C@@H](O)CN1

Columns and labels:
[1] = target: T1, Fibrin (pure fibrin clots formed from fibrinogen and thrombin), P02671
T1 chain 1: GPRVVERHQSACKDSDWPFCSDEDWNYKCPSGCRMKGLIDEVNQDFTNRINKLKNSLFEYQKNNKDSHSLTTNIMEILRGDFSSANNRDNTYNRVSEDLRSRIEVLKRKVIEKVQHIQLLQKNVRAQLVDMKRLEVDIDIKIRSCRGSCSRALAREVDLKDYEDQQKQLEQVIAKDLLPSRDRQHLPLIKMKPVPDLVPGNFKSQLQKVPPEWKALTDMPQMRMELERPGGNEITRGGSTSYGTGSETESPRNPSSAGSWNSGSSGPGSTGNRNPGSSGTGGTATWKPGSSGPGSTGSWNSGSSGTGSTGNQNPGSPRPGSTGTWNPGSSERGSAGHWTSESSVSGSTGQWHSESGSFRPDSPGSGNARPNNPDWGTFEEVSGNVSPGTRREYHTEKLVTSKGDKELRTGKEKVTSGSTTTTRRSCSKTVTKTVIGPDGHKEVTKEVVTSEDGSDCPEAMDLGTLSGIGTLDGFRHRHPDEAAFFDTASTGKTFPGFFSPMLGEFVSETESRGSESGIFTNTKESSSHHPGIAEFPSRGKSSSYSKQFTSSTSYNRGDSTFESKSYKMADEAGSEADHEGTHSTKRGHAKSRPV
T1 chain 2: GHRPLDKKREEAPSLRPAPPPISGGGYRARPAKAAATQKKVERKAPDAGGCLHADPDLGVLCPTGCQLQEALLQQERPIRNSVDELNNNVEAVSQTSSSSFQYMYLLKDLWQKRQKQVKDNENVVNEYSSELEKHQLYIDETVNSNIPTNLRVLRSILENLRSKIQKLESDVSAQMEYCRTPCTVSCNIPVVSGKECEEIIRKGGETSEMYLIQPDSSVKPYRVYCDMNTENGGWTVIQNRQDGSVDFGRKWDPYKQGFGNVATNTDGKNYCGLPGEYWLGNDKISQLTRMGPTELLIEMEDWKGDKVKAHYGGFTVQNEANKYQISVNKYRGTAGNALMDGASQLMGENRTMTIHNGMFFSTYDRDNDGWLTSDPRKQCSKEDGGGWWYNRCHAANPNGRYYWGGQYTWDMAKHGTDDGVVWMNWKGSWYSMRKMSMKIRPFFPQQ
T1 chain 3: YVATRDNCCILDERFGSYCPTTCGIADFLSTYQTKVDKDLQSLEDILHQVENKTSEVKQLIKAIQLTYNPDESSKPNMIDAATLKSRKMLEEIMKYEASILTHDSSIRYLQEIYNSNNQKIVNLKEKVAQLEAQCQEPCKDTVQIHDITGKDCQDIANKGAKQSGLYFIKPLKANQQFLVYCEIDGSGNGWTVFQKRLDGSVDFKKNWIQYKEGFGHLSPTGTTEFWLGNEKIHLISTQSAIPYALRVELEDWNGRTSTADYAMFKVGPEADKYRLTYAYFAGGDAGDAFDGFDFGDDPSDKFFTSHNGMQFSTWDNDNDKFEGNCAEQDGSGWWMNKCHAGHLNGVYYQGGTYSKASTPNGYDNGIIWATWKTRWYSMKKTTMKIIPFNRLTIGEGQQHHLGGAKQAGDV

[2] = target: T2, Fibrin (pure fibrin clots formed from fibrinogen and thrombin) (UniProt P02671 36-629; P02675 45-491; P02679 27-437, limits assumed); test: cell-based or functional assay
T2 sequence (looked up) 1: T1 chain 1
T2 sequence (looked up) 2: T1 chain 2
T2 sequence (looked up) 3: T1 chain 3

B1: Human Factor XIIIa (HFXIIIa) (protein)
chain: GVNLQEFLNVTSVHLFKERWDTNKVDHHTDKYENNKLIVRRGQSFYVQIDFSRPYDPRRDLFRVEYVIGRYPQENKGTYIPVPIVSELQSGKWGAKIVMREDRSVRLSIQSSPKCIVGKFRMYVAVWTPYGVLRTSRNPETDTYILFNPWCEDDAVYLDNEKEREEYVLNDIGVIFYGEVNDIKTRSWSYGQFEDGILDTCLYVMDRAQMDLSGRGNPIKVSRVGSAMVNAKDDEGVLVGSWDNIYAYGVPPSAWTGSVDILLEYRSSENPVRYGQCWVFAGVFNTFLRCLGIPARIVTNYFSAHDNDANLQMDIFLEEDGNVNSKLTKDSVWNYHCWNEAWMTRPDLPVGFGGWQAVDSTPQENSDGMYRCGPASVQAIKHGHVCFQFDAPFVFAEVNSDLIYITAKKDGTHVVENVDATHIGKLIVTKQIGGDGMMDITDTYKFQEGQEEERLALETALMYGAKKPLNTEGVMKSRSNVDMDFEVENAVLGKDFKLSITFRNNSHNRYTITAYLSANITFYTGVPKAEFKKETFDVTLEPLSFKKEAVLIQAGEYMGQLLEQASLHFFVTARINETRDVLAKQKSTVLTIPEIIIKVRGTQVVGSDMTVTVEFTNPLKETLRNVWVHLDGPGVTRPMKKMFREIRPNSTVQWEEVCRPWVSGHRKLIASMSSDSLRHVYGELDVQIQRRPSM
pore radius of fibrin clots (permeation study) [1]: 286±18 nm

clot strength (MA, TEG) relative to controls [2]: 2.5 times
B2: Hemostatic polymer (HP): linear p(HEMA-co-NHSMA) backbone grafted with the cyclic fibrin-binding peptide Ac-Y(DGI)C(HPr)YGLCYIQGK (other)
peptide: Ac-Y[dE]C[Hyp]YGLCYIQGK(p(HEMA-co-NHSMA))-NH2
modifications: disulfide 3-8; also: about 16 peptides grafted per polymer backbone
